Drawing on patent US11325966, this text covers IC50 in TZM-bl assay and IC80 in TZM-bl assay for one molecule.

A value given as a limit tells only on which side of the number the result lay.

Assay in all cases: cell-based or functional assay
The target of test [1] is HIV-1 Env of pseudovirus 191821_E6_1 (HIV-1).
In test [2] the target is HIV-1 Env of pseudovirus Ce2060_G9 (HIV-1).
Test [3] concerns the target HIV-1 Env of pseudovirus Q769.d22 (HIV-1).
Test [4] deals with HIV-1 Env of pseudovirus RHPA4259.7 (HIV-1).
Test [5] has as its target HIV-1 Env of pseudovirus T251-18 (HIV-1).
In test [6] the target is HIV-1 Env of pseudovirus T255-34 (HIV-1).
The target in test [7] is HIV-1 Env of pseudovirus ZM53M.PB12 (HIV-1).

B1: 10-1074 (antibody, V domains shown)
VH: QVQLQESGPGLVKPSETLSVTCSVSGDSMNNYYWTWIRQSPGKGLEWIGYISDRESATYNPSLNSRVVISRDTSKNQLSLKLNSVTPADTAVYYCATARRGQRIYGVVSFGEFFYYYSMDVWGKGTTVTVSS
VL: SYVRPLSVALGETARISCGRQALGSRAVQWYQHRPGQAPILLIYNNQDRPSGIPERFSGTPDINFGTRATLTISGVEAGDEADYYCHMWDSRSGFSWSFGGATRLTVL
As for B1, the IC50 in TZM-bl assay in test [1] was above 10 µg/mL; in test [2], above 10 µg/mL; in test [3], above 10 µg/mL; in test [4], 0.023 µg/mL; in test [5] it was 0.399 µg/mL; in test [6], above 10 µg/mL. The IC50 in TZM-bl assay in test [7] was above 10 µg/mL. Besides, the IC80 in TZM-bl assay in test [1] is above 10 µg/mL; in test [2], above 10 µg/mL; in test [3], above 10 µg/mL; in test [4], 0.083 µg/mL; in test [5], 2.29 µg/mL; in test [6] it was above 10 µg/mL. This molecule displayed an IC80 in TZM-bl assay in test [7] above 10 µg/mL.
